From patent US20230212319A1, “NOVEL ANTIGEN BINDING DOMAINS AND SYNTHETIC ANTIGEN RECEPTORS INCORPORATING THE SAME” (University of Southern California, priority 2020, published 2023)
Substitutions are numbered along the chain they refer to.

B1: 21994 (protein)
chain: MALPVTALLLPLALLLHAARPQVQLVESGGGLVQPGGSLRLSCAASGFTFTNHAMSWVRQAPGKGLELVSSISGNGRTTYYADSVKGRFTISRDISKNTLDLQMNSLRAEDTAVYYCAKDGGETLVDSRGQGTLVTVSSLEDLKNVFPPEVAVFEPSEAEISHTQKATLVCLATGFYPDHVELSWWVNGKEVHSGVCTDPQPLKEQPALNDSRYCLSSRLRVSATFWQNPRNHFRCQVQFYGLSENDEWTQDRAKPVTQIVSAEAWGRADCGFTSESYQQGVLSATILYEILLGKATLYAVLVSALVLMAMVKRKDSRGRAKRSGSGATNFSLLKQAGDVEENPGPTSMDWIWRILFLVGAATGAHSFEVQLLESGGGLVQPGGSLRLSCAASGFIFSSYAMSWVRQAPGKGQEWVSGVSGTGVNTYYADSVKGRFTISRDNSKNTLYLQMNSLRAEDTAVYYCASGKGWDSGSWYEDYRGQGTLVTVSSTRIQNPDPAVYQLRDSKSSDKSVCLFTDFDSQTNVSQSKDSDVYITDKCVLDMRSMDFKSNSAVAWSNKSDFACANAFNNSIIPEDTFFPSPESSCDVKLVEKSFETDTNLNFQNLSVIGFRILLLKVAGFNLLMTLRLWSSRAKRSGSGVKQTLNFDLLKLAGDVESNPGPSRGHMTEYKPTVRLATRDDVPRAVRTLAAAFADYPATRHTVDPDRHIERVTELQELFLTRVGLDIGKVWVADDGAAVAVWTTPESVEAGAVFAEIGPRMAELSGSRLAAQQQMEGLLAPHRPKEPAWFLATVGVSPDHQGKGLGSAVVLPGVEAAERAGVPAFLETSAPRNLPFYERLGFTVTADVEVPEGPRTWCMTRKPGA
B2: 21996 (protein)
chain: MALPVTALLLPLALLLHAARPQVQLVESGGGLVQPGGSLRLSCAASGFTFTNHAMSWVRQAPGKGLELVSSISGNGRTTYYADSVKGRFTISRDISKNTLDLQMNSLRAEDTAVYYCAKDGGETLVDSRGQGTLVTVSSLEDLKNVFPPEVAVFEPSEAEISHTQKATLVCLATGFYPDHVELSWWVNGKEVHSGVCTDPQPLKEQPALNDSRYCLSSRLRVSATFWQNPRNHFRCQVQFYGLSENDEWTQDRAKPVTQIVSAEAWGRADCGFTSESYQQGVLSATILYEILLGKATLYAVLVSALVLMAMVKRKDSRGRAKRSGSGATNFSLLKQAGDVEENPGPTSMDWIWRILFLVGAATGAHSFEVQLLESGGGLVQPGGSLRLSCAASGFIFSIYAMSWVRQAPGKGLEWVSGISGSGVNTYYAHSVKGRFIISRDNSRNTVYLQMNSLRADDTAVYHCANGKGWDGNTWYEDYRGQGTLVTVSSTRIQNPDPAVYQLRDSKSSDKSVCLFTDFDSQTNVSQSKDSDVYITDKCVLDMRSMDFKSNSAVAWSNKSDFACANAFNNSIIPEDTFFPSPESSCDVKLVEKSFETDTNLNFQNLSVIGFRILLLKVAGFNLLMTLRLWSSRAKRSGSGVKQTLNFDLLKLAGDVESNPGPSRGHMTEYKPTVRLATRDDVPRAVRTLAAAFADYPATRHTVDPDRHIERVTELQELFLTRVGLDIGKVWVADDGAAVAVWTTPESVEAGAVFAEIGPRMAELSGSRLAAQQQMEGLLAPHRPKEPAWFLATVGVSPDHQGKGLGSAVVLPGVEAAERAGVPAFLETSAPRNLPFYERLGFTVTADVEVPEGPRTWCMTRKPGA
B3: 21998 (protein)
chain: MDWIWRILFLVGAATGAHSQLQLQESGPGLVKPSETLSLTCTVSGGSVSSSSYYWGWIRQPPGKRLELIGSIYYGGSTYFNPSLKTRVTISVDTSKNQFSLKLSSVTAADTAVYYCAGGDTYGPVGQWPSDYRGQGTLVTVSSLEDLKNVFPPEVAVFEPSEAEISHTQKATLVCLATGFYPDHVELSWWVNGKEVHSGVCTDPQPLKEQPALNDSRYCLSSRLRVSATFWQNPRNHFRCQVQFYGLSENDEWTQDRAKPVTQIVSAEAWGRADCGFTSESYQQGVLSATILYEILLGKATLYAVLVSALVLMAMVKRKDSRGRAKRSGSGATNFSLLKQAGDVEENPGPTSMDWIWRILFLVGAATGAHSFEQVQLVESGGGLVQPGGSLRLSCAASGFTFTNHAMSWVRQAPGKGLELVSSISGNGRTTYYADSVKGRFTISRDISKNTLDLQMNSLRAEDTAVYYCAKDGGETLVDSRGQGTLVTVSSTRIQNPDPAVYQLRDSKSSDKSVCLFTDFDSQTNVSQSKDSDVYITDKCVLDMRSMDFKSNSAVAWSNKSDFACANAFNNSIIPEDTFFPSPESSCDVKLVEKSFETDTNLNFQNLSVIGFRILLLKVAGFNLLMTLRLWSSRAKRSGSGVKQTLNFDLLKLAGDVESNPGPSRGHMTEYKPTVRLATRDDVPRAVRTLAAAFADYPATRHTVDPDRHIERVTELQELFLTRVGLDIGKVWVADDGAAVAVWTTPESVEAGAVFAEIGPRMAELSGSRLAAQQQMEGLLAPHRPKEPAWFLATVGVSPDHQGKGLGSAVVLPGVEAAERAGVPAFLETSAPRNLPFYERLGFTVTADVEVPEGPRTWCMTRKPGA
B4: 22009 (protein)
chain: MALPVTALLLPLALLLHAARPLEGKPIPNPLLGLDSTGSGEDLKNVFPPEVAVFEPSKAEIAHTQKATLVCLATGFYPDHVELSWWVNGKEVHSGVCTDPQPLKEQPALNDSRYCLSSRLRVSATFWQNPRNHFRCQVQFYGLSENDEWTQDRAKPVTQIVSAEAWGRADCGITSASYHQGVLSATILYEILLGKATLYAVLVSALVLMAMVKRKDSRGRAKRSGSGATNFSLLKQAGDVEENPGPTSTMDWIWRILFLVGAATGAHSQLQLQESGPGLVKPSETLSLTCTVSGGSVSSSSYYWGWIRQPPGKRLELIGSIYYGGSTYFNPSLKSRVTISVDTSKNQFSLKLSSVTAADTAVYYCAGGDTYGPVGQWPSDYRGQGTLVTVSSGGGGSGGGSFEVQLLESGGGLVQPGGSLRLSCAASGFIFSIYAMSWVRQAPGKGLEWVSGISGSGVNTYYADSVKGRFIISRDNSRNTVYLQMNSLRADDTAVYHCANGKGWDGNTWYEDYRGQGTLVTVSSTREQKLISEEDGSGIQNPDPAVYQLRDSKSSDKSVCLFTDFDSQTNVSQSKDSDVYITDKCVLDMRSMDFKSNSAVAWSNKSDFACANAFNNSIIPEDTFFPSSDVPCDVKLVEKSFETDTNLNFQNLSVIGFRILLLKVAGFNLLMTLRLWSSRAKRSGSGVKQTLNFDLLKLAGDVESNPGPSRGHMTEYKPTVRLATRDDVPRAVRTLAAAFADYPATRHTVDPDRHIERVTELQELFLTRVGLDIGKVWVADDGAAVAVWTTPESVEAGAVFAEIGPRMAELSGSRLAAQQQMEGLLAPHRPKEPAWFLATVGVSPDHQGKGLGSAVVLPGVEAAERAGVPAFLETSAPRNLPFYERLGFTVTADVEVPEGPRTWCMTRKPGA
B5: 22014 (protein)
chain: B2 chain with H430D

What follows are molecules tested on L363 cells (assay: JNG assay, co-culture with L363 cells). Conditions: co-culture with L363.
Format: cell-based
Description: Cellular supernatant is collected and assayed for the induction of cytokines (e.g., IL2).
JNG (Jurkat cells expressing EGFP under an NFAT promoter) were infected with lentiviral vectors encoding different single chain and multi-chain SARs by spinfection in the presence of 8 µg/ml of Polybrene® (Sigma, Catalog no. H9268). The Jurkat-NFAT-GFP cells are engineered in such a way that the IL-2 promoter, which carries NFAT binding sites, is cloned upstream of the GFP gene. These cells have been used to study signaling via TCR and CAR. The different SARs were stably expressed in Jurkat NFAT-GFP cells by lentiviral mediated gene transfer, followed by selection with puromycin or blasticidin. No drug selection was used in case the construct lacked an antibiotic resistance gene. The SAR-expressing Jurkat-NFAT-GFP cells were cocultured with the target cells at E:T ratio of approximately 1:2 for approximately 4 hours to 18 hours. When the interaction between SIRs and their target antigen results in activation of the NFAT pathway, GFP expression is induced. […] GFP expression was monitored by FACS analysis. The Jurkat-NFAT-GFP (parental) cells were used as control. The structure of different constructs can be determined based on their names. […] The sequence of the other constructs in the table can be similarly determined from their names and by referring to the different Tables of this disclosure that provide the names and SEQ ID NO of the different modules. Alternatively, the composition and modular architecture of the different SAR constructs can be determined from their sequences by bioinformatics tools, including using nucleic acid and amino acids homology searches. A SAR is considered positive in the assay in case the SAR expressing Jurkat-NFAT-GFP cells show greater % GFP positive cells when cultured with the target cell line as compared to parental Jurkat-NFAT-GFP cells. […] In general, the number +/-, +, 2+, 3+, 4+, 5+ refer to approximately 5%, 10%, 20%, 30%, 40% and 50% GFP positive cells. The % of GFP induction in the above assay is dependent not only the relative strength of the SAR but also, among other factors, on the relative level of expression of the SAR in the JNG cells and the relative level of expression of the target antigen in the target cell line. To control for the difference in gene transduction efficiency of the different SAR constructs, the experiment was conducted with JNG cells transduced with SAR constructs co-expressing a drug resistance gene (e.g., puromycin or PAC) followed by drug selection to generate a stable population of SAR-expressing cells. It is to be noted that the drug resistance gene (e.g., PAC) in the SAR constructs is optional and in vivo studies were conducted with SAR constructs lacking the PAC gene.

Molecule	NFAT-GFP ASSAY: L363
B1	L363 (+) (refer to approximately 5%, 10%, 20%, 30%, 40% and 50% GFP positive cells)
B2	L363 (+) (refer to approximately 5%, 10%, 20%, 30%, 40% and 50% GFP positive cells)
B3	L363 (+) (refer to approximately 5%, 10%, 20%, 30%, 40% and 50% GFP positive cells)
B4	L363 (+/-) (refer to approximately 5%, 10%, 20%, 30%, 40% and 50% GFP positive cells)
B5	+/- (refer to approximately 5%, 10%, 20%, 30%, 40% and 50% GFP positive cells)
